Values of other authors as cited in article PMC8391295.

Target: CD4 (Homo sapiens) (UniProt P01730)

Chain of Prolactin-inducible protein (P12273 29-146): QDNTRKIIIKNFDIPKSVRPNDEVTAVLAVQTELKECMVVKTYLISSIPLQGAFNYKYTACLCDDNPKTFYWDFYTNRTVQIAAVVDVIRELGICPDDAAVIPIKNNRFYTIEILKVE

Kd: 6 nM
Substance: Prolactin-inducible protein (from UniProt P12273)
